In the supplement of paper PMC9170038:

Tested on: MS2 coat protein
Test: apparent KD of MS2 coat protein; designed switch direction (-1 OFF switch, 1 ON switch): 1; higher = weaker reporter binding
Procedure, shortened: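 Each step of the titration lasted 0.8–1.5 h at the lowest concentration and 10–20 min at the highest. The protein, SNAP-549-labelled MS2 coat protein, went from 0.7 or 1.5 nM doubling to 3 µM over RNA switches transcribed on Illumina chips by stalled E. coli RNA polymerase. Normalised cluster fluorescence was curve-fitted, and the per-design median over clusters is given as apparent KD.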

[1] = input ligand: microRNA oligo, concentration not stated
[2] = Eterna round: R95, input ligand: FMN 200 uM
[3] = Eterna round: R95, input ligand: microRNA oligo, concentration not stated
[4] = Eterna round: R95, input ligand: none

Row | Sequence | apparent KD of MS2 coat protein (input ligand: FMN 200 uM) [nM] | apparent KD of MS2 coat protein [1] [nM] | apparent KD of MS2 coat protein (input ligand: none) [nM] | apparent KD of MS2 coat protein [2] [nM] | apparent KD of MS2 coat protein [3] [nM] | apparent KD of MS2 coat protein [4] [nM]
1 | AACCGCGCAGAUGCGCGACAUGAGGAUCACCCAUGUGGCACACAGGAUAUCCUGAACAGCUAUUAGGAGAAGGGUGAAGGCCUC [Oredceti] (Eterna round: R96, puzzle: Same State NG 3) | 339 | 45.1 | 127 |  |  | 
2 | AGUCCAGCCUGAGCUGGACAAAAGCAUGUACAUGAGGAUCACCCAUGUCAUGUACAAGCUUUUUGCUCGUCAAAAUA [Mat - hsa-mir-208a - Mod of JL - D29] (puzzle: Sensor for hsa-mir-208a) |  |  |  | 396 | 16.5 | 480
3 | CGAUGAUACUCAGGAAGGAGAGUAGAGGAACAUGAGGAUCACCCAUGUAUGAGCUUUUUGCUCGUCAUGAACAGGAG [JR_SHM208a_Sub009] (puzzle: Sensor for hsa-mir-208a) |  |  |  | 107 | 64.4 | 111
4 | GUGGUCAGACAUGAGGAUCACCCAUGUGGAAUAAAUAAGGAGAAGGAUAUGCAAUAUAGGAUAUAGCAGAAGGUCUGGUUGGUG (Eterna round: R96, puzzle: Same State NG 3) |  | 58.5 |  |  |  | 
5 | GCCAACUUAUGAGGAUAUGGCACCUUAUUGGUGCCAGAAGGCAUGUCAAUUGACAUGAGGAUCACCCAUGUAUUAUAGUUGGCA [Fiskers NG1ss - 21] (Eterna round: R96, puzzle: Same State NG 1) |  | 326 |  |  |  | 
6 | UUAAAGAAUUAAGGAUAUUGAAUACAUAUGUUUAACAUGAGGAUCACCCAUGUGGGUUGCGGUAUCGAGAAGGUAAAAUAAUAG [Mat - Same State NG 2 - JL mod - D5] (Eterna round: R96, puzzle: Same State NG 2) | 108 | 106 | 118 |  |  | 
7 | UUGAAGAAUUAAGGAUAUUGAGUACAUAUGUAAAACAUGAGGAUCACCCAUGUGGGUUGCGGUAUCGAGAAGGUAAAAUAAUAG [Mat - same State NG 2 - JL mod - D71] (Eterna round: R96, puzzle: Same State NG 2) | 74.5 | 79.6 | 81.6 |  |  | 
8 | GGAGGACAUGAGGAUCACCCAUGUGGAUGGGCGCUAGGAUAUGCGUGCGGGAAGAGUGGAGCAGAAGGAGUGGGUU [JR_SS1_Sub045] (Eterna round: R96, puzzle: Same State 1) | 66.8 | 41.9 | 55.6 |  |  | 
9 | UGUCCAGCCUGAGCUGGACAAAAGCAUGUACAUGAGGAUCACCCAUGUUCAUGUACAAGCUUUUUGCUCGUCUUAUC [salish99_208a_r3_057] (puzzle: Sensor for hsa-mir-208a) |  |  |  | 401 | 13.2 | 526
10 | GACAAGCAGGCUUUUUUCUCGUAGUGUAAACAUGAGGAUCACCCAUGUGCCCGCCCUGGAUCUUUGGAUCGCAGGAA [Onlari] (puzzle: Sensor for hsa-mir-208a) |  |  |  | 36.4 | 14.5 | 35.5
11 | AACAAUCUAUCUGAGGAUAUCAUGAAAUAAACAUGAGGAUCACCCAUGUGCAGGAAAACUGCAUAUGAGAAGGCAGAUAGAUUGA [salish99_ss2_r3_x] (puzzle: Same State 2) |  |  |  | 49.5 | 605 | 1060
12 | GGCAGGUGCAGGCUUGCUUGCACCUGGAAACAUGAGGAUCACCCAUGUUUGGGACAAGCUUUGCUCCUCGUUUUGUC [JL ViennaUCT Isusreraar mod 3] (puzzle: Sensor for hsa-mir-208a) |  |  |  | 209 | 133 | 288
13 | GUUGAAUUGCAAGGAUAUCUUAGUCAGACGCUAAGAGAAGGUGCUUUACAGUUACAUGAGGAUCACCCAUGUCUUUCUUUUGAU [Jens NG1-01] (Eterna round: R96, puzzle: Same State NG 1) | 23.4 | 20.2 | 28.5 |  |  | 
14 | GAGUGGUGGAGAGGAUAUACAUUGUUAUUCACUGUAGAAGGUUCUAACAUGAGGAUCACCCAUGUAGGACUAUUCCUGAGAGUU [Parity 55 - Jieux - Same State NG 1] (Eterna round: R96, puzzle: Same State NG 1) | 13.1 | 10.9 | 14.2 |  |  | 
15 | GACAAUCUAUCUGAGGAUAUCAUGAGAAGAACAUGAGGAUCACCCAUGUGCAGGAAAACUGCAUAUGAGAAGGCAGAUAGAUUGG [Mat - Same State 2 - Mod - D17] (puzzle: Same State 2) |  |  |  | 47.8 | 607 | 3570
16 | GUUACAUGAGGAUCACCCAUGUAUGUGUGGGAGUAAGUGUCUUAGGAUAUCUAUGAUAUAAUUUAAGAGAAGGAAGAUUGUUGU [JMF's solution 75] (Eterna round: R96, puzzle: Same State NG 3) | 103 | 69.9 | 136 |  |  | 
17 | AACCCAAUGGAAGGAUAUGGCACCUUAUUGGUGCCAGAAGGUCCUAACAUGAGGAUCACCCAUGUGGGCCGGUCGAAAGACCGG [Fiskers NG1ss - 6] (Eterna round: R96, puzzle: Same State NG 1) | 106 | 306 | 656 |  |  | 
18 | UAGUGCAUUAGAGGAUAUUCUUACGGAAACGUUAAGACAUGAGGAUCACCCAUGUUGUCACAUGGGAAGAAGGCUGAUGUGCUA [Omei SS(NG)2 Bv4] (Eterna round: R96, puzzle: Same State NG 2) | 63.6 | 390 | 835 |  |  | 
19 | GGUCCAGCCUGAGCUGGACAAAAGCAUGUACAUGAGGAUCACCCAUGUUAUGUACAAGCUUUUUGCUCGUCUUAAAA [JL mod - D87 - 10] (puzzle: Sensor for hsa-mir-208a) |  |  |  | 172 | 12.6 | 231
20 | UGCUAUUGUAUAUUGGUGCAAGCUUAUUGACAUGAGGAUCACCCAUGUACUCGUCUUAUGUGCAGUCCGUAGACUGC [JL-shm-2.25 Brourd mod] (puzzle: Sensor for hsa-mir-208a) |  |  |  | 72 | 13.9 | 78.7
21 | GUUACAUGAGGAUCACCCAUGUAUGUGUGGGAGUAAGUGUCUUAGGAUAUCUAGUAUUUAAUUCAAGAGAAGGAAGAUUGUUGU [JMF's solution 68] (Eterna round: R96, puzzle: Same State NG 3) | 118 | 132 | 122 |  |  | 
22 | CUGAGAUGUCAAGGAUAUGCUACCGUUUCGGUAGCAGAAGGUGAUCACAUGAGGAUCACCCAUGUAUGCAUGCGUGAGCGUGCU [JL SSNG1 3.59] (Eterna round: R96, puzzle: Same State NG 1) | 234 | 36.9 | 62 |  |  | 
23 | UUCUCAUUUACAUGAGGAUCACCCAUGUUUUUUUGUAGGAAAUAGGAUAUAGGUCUCUCGUUUUACUAGAAGGAUUUCCUUAUU [JR_SSNG3_Sub090] (Eterna round: R96, puzzle: Same State NG 3) | 51.5 | 38 | 48.5 |  |  | 
